Target: human alpha-thrombin (Homo sapiens, UniProt P00734;P00734 328-363;364-622)
Experiment: dot blot immunoenzymatic assay on cloth; 13.5 nM thrombin; UV cross-linked; PBS (0.01 M phosphate pH 7.4, 0.85% NaCl), 13.5 nM thrombin, 20 min, room temperature; aptamers (10 uM) spotted in 0.1 M Tris-HCl pH 8.0, 0.01 M MgCl2, 0.15 M N

B1: Apt 4 (ssDNA)
DNA: AGATGCCTGTCGAGCATGCTCTTTGGAGACAGTCCGTGGTAGGGCAGGTTGGGGTGACTTCGTGGAAGAAGCGAGACGGTGTAGCTAAACTGCTTTGTCGACGGG
- binding result: binds
